{"source": "patent US8729030B2", "about": "(Affymax, Inc., priority 2003, dated 2014)", "key": {"[1]": {"biological_target": "T1, Recombinant Human EPO R/Fc Chimera (Homo sapiens, UniProt P19235)", "T1 construct": "recombinant EPOr extracellular domain fused to the Fc portion of human IgG1; purchased R&D Systems (Minneapolis, MN, US) 963-ER", "T1 sequence (P19235 25-250 limits assumed)": "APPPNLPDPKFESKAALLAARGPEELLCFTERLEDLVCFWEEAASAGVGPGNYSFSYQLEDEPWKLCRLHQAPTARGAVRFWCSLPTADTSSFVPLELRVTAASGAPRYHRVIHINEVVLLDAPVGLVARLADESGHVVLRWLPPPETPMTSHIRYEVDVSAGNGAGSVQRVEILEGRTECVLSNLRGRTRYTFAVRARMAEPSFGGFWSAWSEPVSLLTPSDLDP", "experiment": "Radioligand competitive binding assay (125I-EPO)", "conditions": "Table 6; competition with 125I-EPO, 4° C. overnight", "procedure": "An alternative radioligand competition binding assay can also be used to measure IC50 values of peptides in this invention. This assay measures binding of ^125I-EPO to EPOr. The assay is preferably performed according to the following exemplary protocol:\nOne 50 μg vial of lyophilized recombinant EPOr extracellular domain fused to the Fc portion of human IgG1 is reconstituted in 1 mL of assay buffer. […] Tubes are capped and mixed gently at 4° C. overnight on a LabQuake rotating shaker.\nThe next day, 50 μL of a 50% slurry of Protein-G Sepharose is added to each tube. Tubes are then incubated for 2 hours at 4° C., mixing gently. The tubes are then centrifuged for 15 min at 4000 RPM (3297×G) to pellet the protein-G sepharose. The supernatants are carefully removed and discarded. After washing 3 times with 1 mL of 4° C. assay buffer, the pellets are counted in a Wallac Wizard gamma counter. Results are then analyzed and the dilution required to reach 50% of the maximum binding value is calculated.\nThe next day, bound ^125I-EPO is quantitated as described above. The results are analyzed and the IC50 value calculated using Graphpad Prism version 4.0, from GraphPad Software, Inc. (San Diego, Calif.). The assay is repeated two or more times for each peptide tested, for a total of 3 or more replicate IC50 determinations. See Table 6 for IC50 values of Peptide I."}, "[2]": {"tested_on": "human, bone marrow derived CD34+ cells", "experiment": "C/BFU-e assay (erythroid colony formation)", "format": "cell-based", "conditions": "Table 6; colonies 90% of maximum relative to EPO control, 14 days", "source_text": "EPO-R signaling stimulates the differentiation of bone marrow stem cells into proliferating red blood cell presursors. This assay measures the ability of test peptides to stimulate the proliferation and differentiation of red blood cell precursors from primary human bone marrow pluripotent stem cells.\nFor this assay, serial dilutions of test peptide are made in IMDM medium (Gibco) supplemented with 10% FBS (Hyclone). […] The methylcellulose and peptide mixture is then vortexed thoroughly. Aliquots (100,000 cells/mL) of human, bone marrow derived CD34+ cells (Poietics/Cambrex) are thawed. The thawed cells are gently added to 0.1 mL of 1 mg/ml DNAse (Stem Cells) in a 50 mL tube. Next, 40-50 mL IMDM medium is added gently to cells: the medium is added drop by drop along the side of the 50 mL tube for the first 10 mL, and then the remaining volume of medium is slowly dispensed along the side of the tube. The cells are then spun at 900 rpm for 20 min, and the media removed carefully by gentle aspiration. The cells are resuspended in 1 ml of IMDM medium and the cell density per mL is counted on hemacytometer slide (10 μL aliquot of cell suspension on slide, and cell density is the average count×10,000 cells/ml). The cells are then diluted in IMDM medium to a cell density of 15,000 cells/mL. A 100 μL of diluted cells is then added to each 1.5 mL methyl cellulose plus peptide sample (final cell concentration in assay media is 1000 cells/mL), and the mixture is vortexed. Allow the bubbles in the mixture to disappear, and then aspirate 1 mL using blunt-end needle. Add 0.25 mL aspirated mixture from each sample into each of 4 wells of a 24-well plate (Falcon brand). Incubate the plated mixtures at 37° C. under 5% CO2 in a humid incubator for 14 days. Score for the presence of erythroid colonies using a phase microscope (5×-10× objective, final magnification of 100×).\nEPO-R signaling stimulates the differentiation of bone marrow stem cells into proliferating red blood cell precursors. […]"}}, "note": "Bridges are numbered along the chain shown (N, C = ends). Where no end group is shown, it is not given here. [ ]: non-standard residue; d: D form. 1Nal = N[C@@H](Cc1cccc2ccccc12)C(=O)O; Sar = CNCC(=O)O", "data": [{"substance": "peptide dimer of monomers (AcG)GLYACHMGPIT(1-nal)VCQPLR(MeG)K (SEQ ID NO: 2) (Ac-GGLYACHMGPIT[1Nal]VCQPLR[Sar]K; disulfide 6-15 (inferred); not fully specified (residue 1); printed as (AcG)GLYACHMGPIT(1-nal)VCQPLR(MeG)K; also: homodimer, dimer linkage not given here) [Peptide I]", "values": [{"measurement": "IC50", "setting": "[1]", "result": 0.111, "unit": "nM"}, {"measurement": "EC90", "setting": "[2]", "result": 3, "unit": "nM"}]}]}
